Results: publication PMC9951844 (Nature Communications, 2023)
Numbering of substitutions follows the chain as printed.

B1: YB12-202 (antibody, V domains shown)
VH: EVQLVQSGAEVKKPGESLKISCKGSGYSFISYWIVWVRQMPGKGLEWMGIIYPGDSDTRYSPSFHGQVTISADKSFSTAYLQWSSLKASDTAMYYCATTPHLYGGADYWGQGTLVTVSS
VL: not shown
B2: YB13-216 (antibody, V domains shown)
VH: QVQLVESGGGVVQPGSSLRISCAASGFTFSSYGMHWVRQGPGKGLEWVAVIWDDGSGKHYAVSVKGRFTISRDNSKNTLYLQMNSLRVEDTAVYYCARDEGTTVTFFDYWGQGTLVTVSS
VL: DIQMTQSPSSLSASVGDRITITCRASQSIRTYLNWYQQKPGKAPKLLIYTSSSLQSGVPSRFSGSGSGTDFTLTISSLQPEDFATYFCQQSYSTPPWTFGQGTKVEIK
B3: YB12-187 (antibody, V domains shown)
VH: EVQLVESGGGLVKPGGSLRLSCAASGFIFSTYSMNWVRQAPGKGLEWVSSISSFSTYIYYADSVKGRFTISRDNAKNSLYLQMNSLRAEDTAVYYCASGQMYSGSYPSGDYFDYWGQGTLVTVSS
VL: LSVLTQPPSVSGAPGQRVTISCTGSSSNIGADYDVHWYQQLPGTAPKLLIYGNTNRPSGVPDRFSGSKSGTSASLAITGLQAEDEAHYYCQSYDTSLSGVVFGGGTKLTVL
B4: YB13-217 (antibody, V domains shown)
V domain 1: QVQLVESGGGVVQPGKSLRLSCTASGFTFSSHSMHWVRQAPGKGLDWVAVISFDGTKNYFADSLKGRFSVSRDNSRNTLYLQMNSLRVEDTAVYYCAREEGGSRMYHYYYGMDVWGQGTTVTVSS
V domain 2: QSVLTQPPSASGTPGQRVTISCSGSSSNIGTNTVNWYQQLPGTAPKLLIYTNNQRPSGVPDRFSGSKSGTSASLAIGGLQSEDEADYYCAAWDDSVSSYVFGTGTQVTAL
B5: YB12-269 (antibody, V domains shown)
VH: EVQLVESGGALVRPGGSLRVSCAASGITVNFNYMTWVRQGPGKGLEWVASIYPGGSTFYADSVKGRFTISRDNSKNTLYLQMTSVRDEDTALYYCARDEGPGMDVWGQGTTVTVSS
VL: QSVLTQPPSVSGAPGQRVTISCTGYSSNIEAGSDVHWYQQPPGTAPKLLIYNNNNRPSGVPDRFSGSKSGTSASLAITGLQPGDEGDYYCQSYDSRLSGYVFGTGTKVTVL
B6: YB9-102 (antibody, V domains shown)
VH: EVQLLESGGGLVQPGGSLRLSCTASGFTFRYYAMTWVRQAPGKGLEWVSVIIGSGGDTYYADSVKGRFTISRDNSKNTLYLQMDSLRAEDTAVYYCATGELELGTCYFDYWGQGTLVTVSS
VL: DIQMTQSPSSVSASVGDRVTITCRASQGISSWLAWYQQKPGEAPKLLISAASSLQSGVPSRFSGSGSETDFTLTISSVQPEDFATYYCQQANSFPQAFGQGTKVEIK
B7: YB13-209 (antibody, V domains shown)
VH: EVQLVESGGGLVKPGGSLKLSCAASGFSFVNAWMSWVRQAPGKGLEWVGRIKDKIDGGTTDYAAPVKGRFSISRDDSKNMLYLQMTSLKTEDTAVYYCTTGYNWHYGIEYWGQGTLVTVSS
VL: DIQMTQSPSSLSASVGDRVTVTCRASQSINSYLNWYQQKPGKAPKLLIYAASSLQSGVPSRFSGSGSGTDFTLTISSLQAEDFATYYCQQSYSTPDTFGQGTKLEIK
B8: YB12-267 (antibody, V domains shown)
VH: KVQLVESGGGLIQPGGSLRLSCAASGLTVSSNYMNWVRQAPGKGLEWVSLIFSGGSTYYADSVKGRFTISRDYSKNTLYLQMNSLRAEDTAVYYCARDLMEVGGMDVWGQGTTVTVSS
VL: QSVLTQPPSASGTPGQRVTISCSGSSSYIGSIYWYQQLPGAAPKLLVFSDHKRPSGVPDRFSGSKSGTSASLAISGLQSEDEAGYYCATWDDSLNGYVFGTGTKVTVL
B9: YB12-266 (antibody, V domains shown)
VH: EVQLVESGGGLIQPGGSLRLSCAASGLTVSSNYMSWVRQAPGKGLEWVSLIYSGGTTSYADSVKGRFTISRDNSKNTLYLQMNSLRVEDTAVYYCARDLVVYGMDVWGQGTTVTVSS
VL: AIQLTQSPSSLSASVGDRVTITCRASQGISSYLAWYQQKPGKAPKLLIYAASTLQSGVPSRFSGSGSGTDFTLTISSLQPEDFATYYCQLLNSYPLTFGGGTKVEIK
B10: YB13-275 (antibody, V domains shown)
V domain 1: QITLKESGPRLVKPTQTLTLTCTFSGFSLATAGMSVGWIRQPPGKALEWLALIYWDDDDRYSPSLKSRLTITKDTSRNQVVLTMTNMDPVDTATYYCIHPRFYSDPSGYYFIWGQGTMVTVSS
V domain 2: SYELTQPPSVSVSPGQTARITCSGDALAKQYAYWYQQKPGQAPVQVMYKDGERPSGIPERFSGSKSGTTVTLTISAVQAEDEADYFCQSADNSGFYVFGTGTQVTVL
B11: YB13-291 (antibody, V domains shown)
V domain 1: QITLKESGPTLVKPTQTLTLTCTFSGFSLNTAGVAVGWIRQPPGKAREWLALIYWDDDQRYSPSLESRLTITKDTSKNLVVLTMTNMDPVDTATYYCAHPRYFSDNSAYYWIWGQGTMVTVSS
V domain 2: SYDLTQPPSVSVSPGQTATISCSGDALPKQYVYWYQQKPGQAPVLVIYKDSERPSGIPERFSGSNSGTTVTLTISGVQAEDEAEYYCQSADSSGFYVFGSGTQVTVL
B12: YB9-112 (antibody, V domains shown)
VH: EVRLVESGGGLIQPGGSLRLSCAASGLIVSSNYMTWVRQAPGKGLEWVSVIYSGGSTFYADSVKGRFTISRDNSKNTLFLQMSSLRAEDTAIYYCARDLDYYGMDVWGQGTTVTVSS
VL: DIQLTQSPSFLSASVGDRVTITCRASQGVASYLAWYQQKPGKAPKLLIYAASTLQSGVPSRFSGSGSGTEFTLTISSLQPEDFATYYCQHLNSYPPITFGQGTRLEIK
B13: YB12-195 (antibody, V domains shown)
VH: B12 VH with R3Q, L27F, T35N, F79Y, S83N, I92V, D100Q, Y101R, Y102D
VL: SYVLTQPPSVSVAPGKTARITCGGNNIGSKNVHWYQQKPGQAPVLVIYYDSDRPSGIPERFSGSNSGNTATLTVSRVEAGDEADYYCQLWDSSSDHVVFGGGTKLTVL
B14: YB12-203 (antibody, V domains shown)
VH: QIQLQQSGPGLVEPSQTLSLTCAISGDSVSSISAAWNWIRQSPSRGLEWLGRTYYRSKWYNDYAVSVKSRITINPDTSKNQFSLHLNSVTPEDTAVYYCARDHLRWDIVATSLEAFDIWGQGTMVTVSS
VL: DIVMTQSPDSLAVSLGERATINCKSSQSVLFSSNNKNSLAWYQQKPGQPPKLLIYWASTRESGVPDRFSGSGSGTDFTLTISSLQAEDVAVYYCQQYHSSLLYTFGQGTKLEIK
B15: YB13-221 (antibody, V domains shown)
VH: EVQLVESGGGLVQPGGSLRLSCAASGFIVSSRYMSWVRQAPGKGLEWVSVIYSDGRSYYADSVKGRFIISRDNFKNALYLQMNSLRAEDTAVYYCARDSPYRTGWFLGQSDAFDIWGQGTMVTVSS
VL: DIQMTQSPSTLSASVGDRVTITCRASQSISSWLAWYQQKPGKAPNLLIYKASSLESGVPSRFSASGSGTEFTLTISSLQPDDFATYYCQQYNSYPPSFGQGTKVEIK

Each binder was assayed against SARS-CoV-2 Omicron BA.1 (B.1.1.529) RBD (SARS-CoV-2 Omicron BA.1 (B.1.1.529), strain).

| Binder | binding result |
| --- | --- |
| B1 | binds |
| B2 | binds |
| B3 | binds |
| B4 | binds |
| B5 | binds |
| B6 | binds |
| B7 | binds |
| B8 | binds |

These binders were tested against SARS-CoV-2 wildtype S1 (SARS-CoV-2 wildtype (Wuhan), UniProt P0DTC2).

| Binder | binding result |
| --- | --- |
| B1 | binds |
| B9 | binds |
| B2 | binds |
| B3 | binds |
| B4 | binds |
| B10 | binds |
| B11 | binds |
| B12 | binds |
| B13 | binds |
| B5 | binds |
| B6 | binds |
| B7 | binds |
| B14 | binds |
| B15 | binds |
| B8 | binds |

What follows are binders tested against SARS-CoV-2 Beta (B.1.351) S1 (SARS-CoV-2 Beta (B.1.351), strain).

| Binder | binding result |
| --- | --- |
| B1 | binds |
| B9 | binds |
| B2 | binds |
| B3 | binds |
| B4 | binds |
| B10 | binds |
| B11 | binds |
| B12 | binds |
| B5 | binds |
| B6 | binds |
| B7 | binds |
| B14 | binds |
| B15 | binds |
| B8 | binds |

These binders were tested against SARS-CoV-2 Delta (B.1.617.2) S1 (SARS-CoV-2 Delta (B.1.617.2), strain).

| Binder | binding result |
| --- | --- |
| B1 | binds |
| B9 | binds |
| B2 | binds |
| B3 | binds |
| B4 | binds |
| B10 | binds |
| B11 | binds |
| B12 | binds |
| B13 | binds |
| B5 | binds |
| B6 | binds |
| B7 | binds |
| B14 | binds |
| B15 | binds |
| B8 | binds |

These binders were tested against SARS-CoV-2 Gamma (P.1) S1 (SARS-CoV-2 Gamma (P.1), strain).

| Binder | binding result |
| --- | --- |
| B1 | binds |
| B9 | binds |
| B2 | binds |
| B3 | binds |
| B4 | binds |
| B10 | binds |
| B11 | binds |
| B12 | binds |
| B13 | binds |
| B5 | binds |
| B6 | binds |
| B7 | binds |
| B15 | binds |
| B8 | binds |

What follows are binders tested against SARS-CoV-2 Kappa (B.1.617.1) spike ECD (SARS-CoV-2 Kappa (B.1.617.1), strain).

| Binder | binding result |
| --- | --- |
| B1 | binds |
| B9 | binds |
| B2 | binds |
| B3 | binds |
| B4 | binds |
| B10 | binds |
| B11 | binds |
| B12 | binds |
| B13 | binds |
| B5 | binds |
| B6 | binds |
| B7 | binds |
| B14 | binds |
| B15 | binds |
| B8 | binds |

What follows are binders tested against SARS-CoV-2 Lambda (C.37) RBD (SARS-CoV-2 Lambda (C.37), strain).

| Binder | binding result |
| --- | --- |
| B1 | binds |
| B9 | binds |
| B2 | binds |
| B3 | binds |
| B4 | binds |
| B10 | binds |
| B11 | binds |
| B12 | binds |
| B13 | binds |
| B5 | binds |
| B6 | binds |
| B7 | binds |
| B14 | binds |
| B15 | binds |
| B8 | binds |
